This experiment has as its target His-PKAC (human wild-type PKAC) (human, UniProt P17612 1-351). Description: ITC.

Drawing on paper PMC5059767 (2016), this text covers Kd for one molecule.

As for EPTLPREFTRRGRRGAVSVDSLAEL [36i peptide (25 aa ARHGAP36 pseudosubstrate motif)], the affinity, expressed as Kd, was 860 nM. In other words, the sub-micromolar range.
